This series concerns the molecule itself. The series is described as follows: cryo-EM structure; ABCB10 E659Q at ~4 mg/mL in 50 mM HEPES pH 7.5, 150 mM NaCl, 0.005% GDN, 0.0005% CHS, incubated with 1 mM biliverdin for 30 min and vitrified; BV-free (apo) and BV-bound maps from a single data set; C2 symmetry.

The results in this text go back to article PMC10090120, “Cryo-EM structures of mitochondrial ABC transporter ABCB10 in apo and biliverdin-bound form” (Nature Communications, 2023).

B1: human ABCB10 (residues A152-A738) E659Q mutant (domain or fragment, UniProt Q9NRK6 152-738, looked up)
chain: AGLPEARKLLGLAYPERRRLAAAVGFLTMSSVISMSAPFFLGKIIDVIYTNPTVDYSDNLTRLCLGLSAVFLCGAAANAIRVYLMQTSGQRIVNRLRTSLFSSILRQEVAFFDKTRTGELINRLSSDTALLGRSVTENLSDGLRAGAQASVGISMMFFVSPNLATFVLSVVPPVSIIAVIYGRYLRKLTKVTQDSLAQATQLAEERIGNVRTVRAFGKEMTEIEKYASKVDHVMQLARKEAFARAGFFGATGLSGNLIVLSVLYKGGLLMGSAHMTVGELSSFLMYAFWVGISIGGLSSFYSELMKGLGAGGRLWELLEREPKLPFNEGVILNEKSFQGALEFKNVHFAYPARPEVPIFQDFSLSIPSGSVTALVGPSGSGKSTVLSLLLRLYDPASGTISLDGHDIRQLNPVWLRSKIGTVSQEPILFSCSIAENIAYGADDPSSVTAEEIQRVAEVANAVAFIRNFPQGFNTVVGEKGVLLSGGQKQRIAIARALLKNPKILLLDQATSALDAENEYLVQEALDRLMDGRTVLVIAHRLSTIKNANMVAVLDQGKITEYGKHEELLSKPNGIYRKLMNKQSFISA
notes: E659Q in the Walker-B motif; The vector adds a C-terminal TEV protease site before the FLAG and 10xHis tags; no cleavage is described; The model of ABCB10-apo covers residues 156-724 (528-532 missing), that of ABCB10-BV residues 154-724 (629-631 missing); also called ABCB10 E659Q; ABCB10-apo
With B1, the stoichiometry N (in general, a count of units in the complex or per binding partner) amounted to 2.
